Reference: patent publication US20240391991A1, “MODULATION OF WNT SIGNALLING IN PULMONARY DISORDERS” (Surrozen Operating, Inc., priority 2021, published 2024)
Entries after “also recorded” stand apart in the source; their conditions may differ.

How the values were obtained:
human AT2 cell organoid [1] = assay: Human AT2 cell organoid growth, CellTiter Glo assay; assay type: cell-based; conditions: for human AT2 culture growth: RSPO alone, Wnt signaling inhibitor C59 present
Procedure: For ex vivo studies, 3D organoid cultures (see, e.g., Zacharias, W. et al. (2018) Nature 555:251-257 and Barkauskas et al. (2017) Development 144:986-997) were constructed by combining primary human lung fibroblasts from healthy, pulmonary fibrosis, or COPD patients with alveolar epithelial cells (AT2 and AEP cells) from patients. Organoids were cultured in SAGM medium with growth factor free Matrigel. The Wnt antagonist and agonist were added in a sequential or concurrent manner to determine the effect on the fibroblast/myofibroblast proliferation, matrix production, alveolar epithelial cell proliferation and AT1/AT2 cell fate trans-differentiation. Alveolar organoids can also be cultured directly from human distal lung cells including purified AT2 cells (Kobayashi et al., (2020) supra).
In all of the AT2 cell organoid experiments, the Wnt signaling inhibitor, C59, was used to prevent endogenous secretion of Wnt ligands. […] AT2 cell organoid growth was assessed with the CellTiter Glo assay.

[2] = system: acute bleomycin mouse model; assay: Bleomycin-induced acute lung injury (fibrosis) mouse model; assay type: in vivo; conditions: for percentage of lung area affected by fibrosis / fibrosis score (Modified Ashcroft): agent alone, dosed four times between week 1 and week 3, vs anti-GFP; for percentage of lung area affected by fibrosis: FIGS. 10-11; for fibrosis score (Modified Ashcroft): FIGS. 10-12
Text: The acute lung injury (single bleomycin treatment; FIG. 1) and chronic intermittent/low dose bleomycin mouse models (FIG. 2) were used to determine the therapeutic effects of Wnt antagonist and agonist (administered concurrently or sequentially or individually) in combination with or without anti-fibrotic drugs (e.g., pirfenidone and nintedanib) to assess effects on anti-fibrotic and improved respiratory functions (see, e.g., Degryse, A. et al. (2010) Am J Physiol Lung Cell Mol Physiol. 299:442-52). Improvement of fibrosis was observed upon treatment with a WNT agonist, SWAP5 (see, e.g., FIG. 7, FIG. 10). Specifically, bleomycin was administered intratracheally to the mice at day 0, and animals were treated twice weekly with an agonist approach—combination of SWAP5 (FZD1,2,5,7,8 multi-FZD-specific SWAP) and RSPO2 (combo)—for two weeks starting at day 7 until termination at day 21. […] Improvement of fibrosis was also observed upon treatment with a Wnt agonist or the Wnt signaling enhancer RSPO2 alone (FIG. 10).

human AT2 cell organoid [3] = assay: Human AT2 organoid size (diameter, microscopy); assay type: cell-based; conditions: in the absence of RSPO; C59 present; FIG. 6
[4] = combination of SWAP5 and RSPO2 (combo), twice weekly day 7 to day 21, FIG. 7

Molecule | human AT2 culture growth (human AT2 cell organoid [1]) | percentage of lung area affected by fibrosis [2] | fibrosis score (Modified Ashcroft) [2] | further results
RSPO2: the Wnt signaling enhancer RSPO2 (R-spondin 2) (protein, UniProt Q6UXX9 22-243, looked up) R-spondin-2: QGNRWRRSKRASYVSNPICKGCLSCSKDNGCSRCQQKLFFFLRREGMRQYGECLHSCPSGYYGHRAPDMNRCARCRIENCDSCFSKDFCTKCKVGFYLHRGRCFDECPDGFAPLEETMECVEGCEVGHWSEWGTCSRNNRTCGFKWGLETRTRQIVKKPVKDTILCPTIAESRRCKMTMRHCPGGKRTPKAKEKRNKKKKRKLIERAQEQHSVFLATDRANQ | did not enhance human AT2 culture growth | reduced the fibrosis score and percentage of lung area affected; also recorded: reduce the area of the lung that is fibrotic | reduced the fibrosis score; also recorded: lower the severity of fibrosis | –
RSPO1: R-spondin 1, of a family of ligands that amplify Wnt signals (protein, UniProt Q2MKA7 21-263, looked up) R-spondin-1: SRGIKGKRQRRISAEGSQACAKGCELCSEVNGCLKCSPKLFILLERNDIRQVGVCLPSCPPGYFDARNPDMNKCIKCKIEHCEACFSHNFCTKCKEGLYLHKGRCYPACPEGSSAANGTMECSSPAQCEMSEWSPWGPCSKKQQLCGFRRGSEERTRRVLHAPVGDHAACSDTKETRRCTVRRVPCPEGQKRRKGGQGRRENANRNLARKESKEAGAGSRRRKGQQQQQQQGTVGPLTSAGPA | did not enhance human AT2 culture growth | – | – | –
SWAP6: FZD1,2,7-specific Wnt agonist; anti-FZD antibody with LRP6 VHH on light chain N-terminus; SEQ ID NO: 12 and 11 (protein) chain 1: QVQLQQWGAGLLKPSETLSLTCAVSGASFSGHYWTWIRQPPGKGLEWIGEIDHTGSTNYEPSLRSRVTISVDTSKNQFSLNLKSVTAADTAVYYCARGGQGGYDWGHYHGLDVWGQGTTVTVSSASTKGPSVFPLAPSSKSTSGGTAALGCLVKDYFPEPVTVSWNSGALTSGVHTFPAVLQSSGLYSLSSVVTVPSSSLGTQTYICNVNHKPSNTKVDKKVEPKSCDKTHTCPPCPAPEAAGGPSVFLFPPKPKDTLMISRTPEVTCVVVDVSHEDPEVKFNWYVDGVEVHNAKTKPREEQYNSTYRVVSVLTVLHQDWLNGKEYKCKVSNKALGAPIEKTISKAKGQPREPQVYTLPPSREEMTKNQVSLTCLVKGFYPSDIAVEWESNGQPENNYKTTPPVLDSDGSFFLYSKLTVDKSRWQQGNVFSCSVMHEALHNHYTQKSLSLSPGK chain 2: DVQLVESGGGLVQAGGSLRLACAGSGRIFAIYDIAWYRHPPGNQRELVAMIRPVVTEIDYADSVKGRFTISRNNAMKTVYLQMNNLKPEDTAVYYCNAKRPWGSRDEYWGQGTQVTVSSGSGSGSYVLTQPPSVSVSPGQTASITCSGDKVGHKYASWYQQKPGQSPVLVIYEDSQRPSGIPVRFSGSNSGNTATLTISGTQAMDEADYYCQAWDSSTDVVFGGGTKLTVLGQPKAAPSVTLFPPSSEELQANKATLVCLISDFYPGAVTVAWKADSSPVKAGVETTTPSKQSNNKYAASSYLSLTPEQWKSHRSYSCQVTHEGSTVEKTVAPTECS | – | – | caused a trend of reduction in the extent of fibrosis | –
SWAP4: FZD4-mono-specific Wnt agonist; anti-FZD antibody with LRP6 binder; heavy/light chains SEQ ID NO: 9 and 10 (antibody) heavy: EVQLVESGGGLVQPGGSLRLSCAASGFTFTSYYISWVRQAPGKGLEWVAEISPYSGSTYYADSVKGRFTISADTSKNTAYLQMNSLRAEDTAVYYCALRARPPIRLHPRGSVMDYWGQGTLVTVSSGGGGSGGGGSGGGGSEVQLVESGGGLVQPGGSLRLSCAASGFNISYYYIHWVRQAPGKGLEWLASIYPSSGYTYYADSVKGRFTISADTSKNTAYLQMNSLRAEDTAVYYCARSSFYWAMDYWGQGTLVTVSSASTKGPSVFPLAPSSKSTSGGTAALGCLVKDYFPEPVTVSWNSGALTSGVHTFPAVLQSSGLYSLSSVVTVPSSSLGTQTYICNVNHKPSNTKVDKKVEPKSCDKTHTCPPCPAPEAAGGPSVFLFPPKPKDTLMISRTPEVTCVVVDVSHEDPEVKFNWYVDGVEVHNAKTKPREEQYNSTYRVVSVLTVLHQDWLNGKEYKCKVSNKALGAPIEKTISKAKGQPREPQVYTLPPSREEMTKNQVSLTCLVKGFYPSDIAVEWESNGQPENNYKTTPPVLDSDGSFFLYSKLTVDKSRWQQGNVFSCSVMHEALHNHYTQKSLSLSPGK light: DIQMTQSPSSLSASVGDRVTITCRASQDVSTAVAWYQQKPGKAPKLLIYSASFLYSGVPSRFSGSGSGTDFTLTISSLQPEDFATYYCQQSYTTPPTFGQGTKVEIKGGGGSGGGGSGGGGSDIQMTQSPSSLSASVGDRVTITCRASQSVSSAVAWYQQKPGKAPKLLIYSASSLYSGVPSRFSGSRSGTDFTLTISSLQPEDFATYYCQQSYAAYLFTFGQGTKVEIKRTVAAPSVFIFPPSDEQLKSGTASVVCLLNNFYPREAKVQWKVDNALQSGNSQESVTEQDSKDSTYSLSSTLTLSKADYEKHKVYACEVTHQGLSSPVTKSFNRGEC | – | – | – | human AT2 cell organoid growth as organoid size (diameter) (human AT2 cell organoid [3]): expand AT2 organoids; self-renewal and expansion of human AT2 cells (human AT2 cell organoid [1]; summary of organoid results): promotes the self-renewal and expansion of human AT2 cells
SWAP5: FZD-1,2,5,7,8-specific Wnt agonist; anti-FZD antibody with LRP6 VHH on light chain N-terminus; SEQ ID NO: 1 and 2 (protein) chain 1: EVQLVQSGAEVKKPGASVKVSCKASGYTFTSYGISWVRQAPGQGLEWMGWISAYNGNTNYAQKLQGRVTMTTDTSTSTAYMELRSLRSDDTAVYYCASSKEKATYYYGMDVWGQGTTVTVSSASTKGPSVFPLAPSSKSTSGGTAALGCLVKDYFPEPVTVSWNSGALTSGVHTFPAVLQSSGLYSLSSVVTVPSSSLGTQTYICNVNHKPSNTKVDKKVEPKSCDKTHTCPPCPAPEAAGGPSVFLFPPKPKDTLMISRTPEVTCVVVDVSHEDPEVKFNWYVDGVEVHNAKTKPREEQYNSTYRVVSVLTVLHQDWLNGKEYKCKVSNKALGAPIEKTISKAKGQPREPQVYTLPPSREEMTKNQVSLTCLVKGFYPSDIAVEWESNGQPENNYKTTPPVLDSDGSFFLYSKLTVDKSRWQQGNVFSCSVMHEALHNHYTQKSLSLSPGK chain 2: DVQLVESGGGLVQAGGSLRLACAGSGRIFAIYDIAWYRHPPGNQRELVAMIRPVVTEIDYADSVKGRFTISRNNAMKTVYLQMNNLKPEDTAVYYCNAKRPWGSRDEYWGQGTQVTVSSGSGSGQAVVLQEPSLSVSPGGTVTLTCGLSSGSVSTNYYPSWYQQTPGQAPRTLIYYTNTRSSDVPERFSGSIVGNKAALTITGAQPDDESVYFCLLYLGRGIWVFGGGTKLTVLGQPKAAPSVTLFPPSSEELQANKATLVCLISDFYPGAVTVAWKADSSPVKAGVETTTPSKQSNNKYAASSYLSLTPEQWKSHRSYSCQVTHEGSTVEKTVAPTECS | – | reduced the fibrosis score and percentage of lung area affected; also recorded: reduce the area of the lung that is fibrotic | reduced the fibrosis score; also recorded: lower the severity of fibrosis | area (percent) of lung affected by fibrosis [2, 4]: reduction in the degree of fibrosis severity and the area of the lung affected by fibrosis; also recorded: reduce the area of the lung that is fibrotic; fibrosis severity (fibrosis score) [2, 4]: reduction in the degree of fibrosis severity; also recorded: lower the severity of fibrosis
